Each block holds one molecule with its values, some of them ahead of it.
What was measured:
A431 tumor = test: IHC of Fc-TPP infiltration in A431 tumor tissue; assay type: in vivo, Balb/c nude mice; conditions: A431 xenograft, 5 mg/kg intravenously, 3 hours
Method: 3 hours after injection, tumors were extracted from mice to conduct immunohistochemistry experiment. The extracted tumors were cut into 20 μm thick using a frozen section method, and stained with a primary antibody, CD31 antibody (BD Pharmingen), and a TRITC (red fluorescence)-conjugated secondary antibody. Further, in order to observe Fc-TPP distributed in the tissues, FITC (green fluorescence)-conjugated antibodies recognizing Fc were used.

HUVEC = test: Transwell assay of vascular endothelial cell permeability; assay type: cell-based, human; conditions: 30 minutes
Method: Based on the above experimental results, as experiments for confirming the improvement of vascular endothelial cell permeability, single peptides and Fc-TPP were treated to conduct Transwell assay.
Specifically, HUVECs were seeded into Transwell plate (Corning) at a density of 5×10^4 per well in a upper chamber using Endothelial Growth Medium, PromoCell (EGM) medium, followed by incubation at 37° C. for 3 days under 5% CO2 condition. […] Thereafter, Dextran-FITC (Sigma) 50 μg was put into the upper chamber and the medium of the lower chamber was sampled to measure its fluorescence after 30 minutes, using the principle that a fluorescent substance is observed in the lower chamber when the permeability in HUVECs was improved.

VE-cadherin in HUVEC = test: Western blot of VE-cadherin in HUVEC; assay type: cell-based, human; conditions: single peptides and Fc-TPP 1 μM, 10 minutes
Description: During this process, a decrease in vascular endothelial (VE)-cadherin, phosphorylation, etc. of endothelial cells occur. That is, VE-cadherin or epithelial (E)-cadherin involves in adhesion between endothelial cells, while forming the base of adherent junction between endothelial cells and epithelial cells. The change in molecules relieve the density of adherent junction, which results in increasing permeability of blood vessels and improving intracellular permeability.
As an experimental method for indirectly confirming improvement of vascular permeability based thereon, a change in VE-cadherin was confirmed through a Western blot. Specifically, HUVECs were seeded into 6-well plates at a density of 3×10^5 per well, followed by incubation for 24 hours. Thereafter, single peptides and Fc-TPP were treated with 1 μM for 10 minutes to perform a Western blot. Gel subjected to SDS-PAGE was transported into PVDF membrane, a primary antibody (SantaCruz) and an HRP-conjugated secondary antibody (SantaCruz) which recognize VE-cadherin and (3-actin, respectively were used for detection. ImageQuant LAS4000 mini (GE Healthcare) was used for analysis.

[1] = system: b1b2 domains of neuropilin-1 and -2; test: ELISA binding to b1b2 domains of neuropilin-1 and -2; conditions: 100 nM (peptides 100 nM, 1 μM)
Method: The binding capacity of purified Fc-TPP to b1b2 domains of neuropilin-1 and -2 (neuropilin (NRP)1/2-b1b1 domain) was confirmed in Enzyme Linked Immunosorbent Assay (ELISA).
The target molecules, b1b2 domains (273-586) of neuropilin-1 and b1b2 domains (275-595) of neuropilin-2, and the control group VEGFR2 (46-753) were bound in an amount of 1 μg each in 96-well EIA/RIA plates (COSTAR Corning In., USA) at room temperature for 1 hour, and then washed three times for 10 minutes with 0.1% PBST (0.1% Tween20, pH 7.4, 137 mM NaCl, 10 mM Phosphate, 2.7 mM KCl, SIGMA-ALDRICH co., USA). After binding for 1 hour with 5% skim milk (pH 7.4, 137 mM NaCl, 10 mM Phosphate, 2.7 mM KCl, SIGMA-ALDRICH co., USA), it was washed three times for 10 minutes with 0.1% PBST (0.1% Tween20, pH 7.4, 137 mM NaCl, 10 mM Phosphate, 2.7 mM KCl, SIGMA-ALDRICH co., USA). […] After binding to alkaline phosphatase (AP)-conjugated anti-biotin mAb (Sigma, USA) and reacting with pnitrophenyl […] (pNPP, SIGMA-ALDRICH co., USA), absorbance at 405 nm was quantified. From the ELISA result obtained from 30 minute-reaction of AP-pNPP, the binding capacity of expressed and purified Fc-TPP to b1b2 domains of neuropilin-1 and -2 was confirmed.

[2] = target: T1, NRP2-b1b2 (b1b2 domain of neuropilin-2) (Homo sapiens, UniProt O60462); test: SPR (Biacore2000) binding to b1b2 domain of neuropilin-2; conditions: for Kd: read-out: Binding affinity KD
T1 construct: b1b2 domains (275-595) of neuropilin-2
T1 sequence (O60462 275-595): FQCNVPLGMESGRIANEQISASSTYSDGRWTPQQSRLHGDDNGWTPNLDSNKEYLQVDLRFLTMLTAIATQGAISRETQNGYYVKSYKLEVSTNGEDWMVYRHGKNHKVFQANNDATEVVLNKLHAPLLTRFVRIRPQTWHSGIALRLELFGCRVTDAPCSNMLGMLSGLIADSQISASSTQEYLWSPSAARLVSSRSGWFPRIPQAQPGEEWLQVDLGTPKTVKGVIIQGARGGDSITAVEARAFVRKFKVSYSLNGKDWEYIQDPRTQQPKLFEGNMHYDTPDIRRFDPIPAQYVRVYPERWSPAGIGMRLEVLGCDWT
Method: (§1) Specifically, each b1b2 domain of neuropilin-1 and -2 was diluted with 10 mM Na-acetate buffer (pH 4.0), and fixed onto CMS sensor chips (GE healthcare, USA) in about 1000 response units (RU). […] After bond and dissociation analysis, the regeneration of CMS chip was performed by streaming a buffer (20 Mm NaOH, 1 M NaCl, pH 10.0) at a stream velocity 30 μl/min for 1 minute.

[3] = target: T2, NRP1-b1b2 (b1b2 domain of neuropilin-1) (Homo sapiens, UniProt O14786); test: SPR (Biacore2000) binding to b1b2 domain of neuropilin-1; conditions: NRP1-b1b2, SPR; for Kd: read-out: Binding affinity KD
T2 construct: b1b2 domains (273-586) of neuropilin-1
T2 sequence (O14786 273-586): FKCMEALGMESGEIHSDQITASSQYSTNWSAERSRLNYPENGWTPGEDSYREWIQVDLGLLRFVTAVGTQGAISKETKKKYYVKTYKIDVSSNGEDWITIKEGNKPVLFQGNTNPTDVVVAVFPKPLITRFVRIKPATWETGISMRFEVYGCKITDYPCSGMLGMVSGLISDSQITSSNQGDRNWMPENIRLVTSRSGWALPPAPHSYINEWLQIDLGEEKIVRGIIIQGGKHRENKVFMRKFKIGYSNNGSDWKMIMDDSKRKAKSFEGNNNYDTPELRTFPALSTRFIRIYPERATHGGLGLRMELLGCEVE
Method: as §1

[4] = target: b1b2 domains (275-595) of neuropilin-2 (Homo sapiens (Human)) (UniProt O60462); test: SPR, b1b2 domain on chip
[5] = target: b1b2 domains (273-586) of neuropilin-1 (Homo sapiens (Human)) (UniProt O14786); test: SPR, b1b2 domain on chip
FaDu tumor = test: In vivo Evans Blue assay of vascular permeability; design: species or system Balb/c nude mice; conditions: FaDu xenograft, 400 ng, 40 minutes
Method: Additionally, in order to confirm the improvement of vascular permeability in vivo, Evans Blue assay was conducted. […] 40 minutes after injection, the mice were perfused through the heart with PBS containing 1% BSA, and tumor tissues were extracted (FIG. 11d). Then, the extracted tissues were put into 1 ml of […] (Sigma) and reacted at 37° C. overnight under mild shaking condition. Thereafter, the supernatant was obtained from centrifugation to measure the absorbance (600 nm), and the amount that Evans Blue penetrated was quantified.

[6] = single peptides and Fc-TPP 1 μM

Molecule: A22: Sema3A-derived 22 amino acid TPP, residues 739-760, SEQ ID NO: 1, HTPGNSNKWKHLQENKKGRNRR (A22) [Clone A22]
infiltration into tumor tissue (IHC) (A431 tumor): did not infiltrate into the tissues | permeability of HUVEC (Transwell, Dextran-FITC) (HUVEC; [6]): improvement of vascular permeability was not induced | change in VE-cadherin (Western blot) (VE-cadherin in HUVEC): no change in VE-cadherin

Molecule: F22: Sema3F-derived 22 amino acid TPP, residues 758-779, SEQ ID NO: 3, REAPGAPRSPEPQDQKKPRNRR (F22) [Clone F22]
permeability of HUVEC (Transwell, Dextran-FITC) (HUVEC; [6]): permeability of HUVEC was not improved

Molecule: Fc-4A22: Human IgG1 Fc with TPP 4A22 (SEQ ID NO: 5) fused to its C-terminus (GAGAHTPGNSNKWKHLQENKKGRNRR)
Association rate ka [2]: 6.09 ± 0.63 × 10^3 M^−1s^−1 | Dissociation rate kd [2]: 1.23 ± 0.16 × 10^−1 s^−1 | Kd [2]: 20200 nM | Association rate ka [3]: 1.02 ± 0.14 × 10^3 M^−1s^−1 | Dissociation rate kd [3]: 1.93 ± 0.05 × 10^−2 s^−1 | Kd [3]: 18000 nM | permeability of HUVEC (Transwell, Dextran-FITC) (HUVEC; [6]): improvement of vascular permeability was not induced | change in VE-cadherin (Western blot) (VE-cadherin in HUVEC): VE-cadherin was not decreased

Molecule: Fc-4F22: Human IgG1 Fc with TPP 4F22 (SEQ ID NO: 8) fused to its C-terminus (GAGAREAPGAPRSPEPQDQKKPRNRR)
Association rate ka [2]: 1.21 ± 0.15 × 10^2 M^−1s^−1 | Dissociation rate kd [2]: 1.57 ± 0.40 × 10^−3 s^−1 | Kd [2]: 13000 nM | Association rate ka [3]: 2.18 ± 0.12 × 10^2 M^−1s^−1 | Dissociation rate kd [3]: 2.25 ± 0.18 × 10^−3 s^−1 | Kd [3]: 10300 nM | permeability of HUVEC (Transwell, Dextran-FITC) (HUVEC; [6]): permeability of HUVEC was not improved

Molecule: Fc-15F22: Human IgG1 Fc with (GGGGS)3-F22 (SEQ ID NO: 9) fused to its C-terminus (GGGGSGGGGSGGGGSREAPGAPRSPEPQDQKKPRNRR)
Association rate ka [2]: 1.05 ± 0.03 × 10^3 M^−1s^−1 | Dissociation rate kd [2]: 1.30 ± 0.21 × 10^−2 s^−1 | Kd [2]: 12400 nM | Association rate ka [3]: 1.35 ± 0.24 × 10^3 M^−1s^−1 | Dissociation rate kd [3]: 5.34 ± 0.24 × 10^−2 s^−1 | Kd [3]: 39700 nM | permeability of HUVEC (Transwell, Dextran-FITC) (HUVEC; [6]): permeability of HUVEC was not improved

Molecule: Sema3A (26-760) (from UniProt Q14563) (ligand)
Kd [4]: 231 nM | koff [4]: 0.00161 s⁻¹ | kon [4]: 6960 M⁻¹ s⁻¹ | Kd [5]: 27.9 nM | koff [5]: 0.000808 s⁻¹ | kon [5]: 28900 M⁻¹ s⁻¹

Molecule: Sema3F (19-779) (from UniProt Q13275) (ligand)
Kd [4]: 345 nM | koff [4]: 0.0015 s⁻¹ | kon [4]: 4340 M⁻¹ s⁻¹ | Kd [5]: 245 nM | koff [5]: 0.000973 s⁻¹ | kon [5]: 3980 M⁻¹ s⁻¹

Molecule: VEGF165A (from UniProt P15692-4) (ligand)
Kd [4]: 32 nM | koff [4]: 0.00373 s⁻¹ | kon [4]: 117000 M⁻¹ s⁻¹ | Kd [5]: 3.51 nM | koff [5]: 0.00342 s⁻¹ | kon [5]: 975000 M⁻¹ s⁻¹

B1: Sema3A: Secreted class 3 semaphorin 3A (26-760), neuropilin ligand, control group (protein)
chain: KNNVPRLKLSYKEMLESNNVITFNGLANSSSYHTFLLDEERSRLYVGAKDHIFSFDLVNIKDFQKIVWPVSYTRRDECKWAGKDILKECANFIKVLKAYNQTHLYACGTGAFHPICTYIEIGHHPEDNIFKLENSHFENGRGKSPYDPKLLTASLLIDGELYSGTAADFMGRDFAIFRTLGHHHPIRTEQHDSRWLNDPKFISAHLISESDNPEDDKVYFFFRENAIDGEHSGKATHARIGQICKNDFGGHRSLVNKWTTFLKARLICSVPGPNGIDTHFDELQDVFLMNFKDPKNPVVYGVFTTSSNIFKGSAVCMYSMSDVRRVFLGPYAHRDGPNYQWVPYQGRVPYPRPGTCPSKTFGGFDSTKDLPDDVITFARSHPAMYNPVFPMNNRPIVIKTDVNYQFTQIVVDRVDAEDGQYDVMFIGTDVGTVLKVVSIPKETWYDLEEVLLEEMTVFREPTAISAMELSTKQQQLYIGSTAGVAQLPLHRCDIYGKACAECCLARDPYCAWDGSACSRYFPTAKRRTRRQDIRNGDPLTHCSDLHHDNHHGHSPEERIIYGVENSSTFLECSPKSQRALVYWQFQRRNEERKEEIRVDDHIIRTDQGLLLRSLQQKDSGNYLCHAVEHGFIQTLLKVTLEVIDTEHLEELLHKDDDGDGSKTKEMSNSMTPSQKVWYRDFMQLINHPNLNTMDEFCEQVWKRDRKQRRQRPGHTPGNSNKWKHLQENKKGRNRR
Association rate ka [2]: 6.96 ± 0.03 × 10^3 M^−1s^−1 | Dissociation rate kd [2]: 1.61 ± 0.28 × 10^−3 s^−1 | Kd [2]: 231 nM | Association rate ka [3]: 2.89 ± 0.07 × 10^4 M^−1s^−1 | Dissociation rate kd [3]: 8.08 ± 0.06 × 10^−4 s^−1 | Kd [3]: 27.9 nM | vascular permeability (Evans Blue) (FaDu tumor): increased vascular permeability | permeability of HUVEC (Transwell, Dextran-FITC) (HUVEC; control ligands about 1.3 nM): permeability of HUVEC was improved | change in VE-cadherin (Western blot) (VE-cadherin in HUVEC): a decrease in VE-cadherin was observed

Continued, in another order:

binding to b1b2 domains of NRP-1 and -2 (ELISA, absorbance 405 nm) [1]: stronger bond
Molecule: A22p: A22 with Asn758Pro, SEQ ID NO: 2, HTPGNSNKWKHLQENKKGRPRR (A22p) [Clone A22p]
infiltration into tumor tissue (IHC) (A431 tumor): did not infiltrate into the tissues | permeability of HUVEC (Transwell, Dextran-FITC) (HUVEC; [6]): improvement of vascular permeability was not induced | change in VE-cadherin (Western blot) (VE-cadherin in HUVEC): no change in VE-cadherin

binding to b1b2 domains of NRP-1 and -2 (ELISA, absorbance 405 nm) [1]: stronger bond
Molecule: F22p: F22 with Asn777Pro, SEQ ID NO: 4, REAPGAPRSPEPQDQKKPRPRR (F22p) [Clone F22p]
permeability of HUVEC (Transwell, Dextran-FITC) (HUVEC; [6]): permeability of HUVEC was not improved
